Assay results: publication PMC8200818, “SPECT/CT Imaging, Biodistribution and Radiation Dosimetry of a ^177Lu-DOTA-Integrin αvβ6 Cystine Knot Peptide in a Pancreatic Cancer Xenograft Model” (Frontiers in Oncology, 2021)

How the values were obtained:
[1] = in vivo; conditions: female, athymic NMRI-Foxn1^nu/Foxn1^nu, mouse, iv, 1 MBq, total radioactivity
Description: (§1) For in vivo experiments, at least 8-week-old female athymic NMRI-Foxn1^nu/Foxn1^nu mice (Janvier Labs, Saint-Berthevin, France) were used. Animal care followed institutional guidelines and all experiments were approved by local animal research authorities. For the generation of tumor xenografts, 5 x 10^6 cells of Capan-2 cells were inoculated subcutaneously into the left and right shoulder (1:1 phosphate-buffered saline [PBS]/Matrigel Basement Membrane Matrix High Concentration, Corning, Corning, USA). Tumors were allowed to grow for two to four weeks (tumor volume > 100 mm^3) after cell inoculation.
(§2) Radiolabeling of the DOTA-integrin αvβ6 knottin was carried out manually using [^177Lu]LuCl3 and a reagent kit from ITG Isotope Technologies Garching GmbH (Garching, Germany). A total of 40 µL (stock solution of peptide at 1 µg/µL in 10% DMSO in water) was added to 500 µL of ascorbate buffer solution pH 5.0, prepared from the kit (composition not disclosed by vendor) and the resulting mixture was then added to 35 µL of [^177Lu]LuCl3 (2 GBq in aqueous 0.04 M HCl) and the reaction mixture was heated at 80 °C for 35 minutes followed by cooling for 10 minutes at room temperature. The product was then diluted with 0.5 mL of saline and the pH was adjusted to 7 using a 1 M aqueous solution of NaHCO3 prior to injection in mice. A reverse-phase HPLC system (Knauer GmbH, Germany) with a column (Eurospher II, C18, 250 × 4 mm) was used to determine the radiochemical purity of the radiotracer. The HPLC system was equipped with an Azura P.6.1L pump coupled with ultraviolet (Azura UVD 2.1L) and radiometric (γ-Raytest-Isotopenmessgeraete GmbH, Germany) detectors. The gradient elution system used mobile phase A (100% acetonitrile) and mobile phase B (deionized H2O containing 0.1% trifluoroacetic acid) and a flow rate of 1.0 mL/min. Starting with 0% A and 100% B, the gradient was increased to 100% A over 25 min and finally returned to initial gradient conditions within 5 min.
(§3) Tumor-bearing mice (n=4-5 per time point) were injected with approximately 1 MBq (22 pmol) of ^177Lu-DOTA-integrin αvβ6 knottin to the tail vein via a catheter. Mice (n=4-5 per time point) were sacrificed and dissected one, two, three and eight days post injection. Tumor, blood, stomach, pancreas, small intestine, colon, liver, spleen, kidney, heart, lung, muscle and femur samples were weighed and uptake of radioactivity was measured by a gamma counter.

[2] = system: Capan-2 xenografts; test: in vivo; conditions: for Kidney uptake / Blood activity: ~1 MBq i.v.
Description: as §1, §2, §3

[3] = system: Capan-2 xenografts
Description: as §1, §2
SPECT and CT imaging were performed using the nanoSPECT/CTplus scanner (Mediso, Hungary/Bioscan, France). […]

[4] = 192 h p.i., nude mice, Capan-2 xenografts, mean ± SD (4 ≤ n ≤ 5)

`CC[C@H](C)[C@@H]1NC(=O)[C@@H](NC(=O)CNC(=O)CN2CCN(CC(=O)O)CCN(CC(=O)O)CCN(CC(=O)O)CC2)CSSC[C@@H]2NC(=O)[C@H](C)NC(=O)CNC(=O)[C@@H]3CCCN3C(=O)[C@@H]3CSSC[C@@H](C(=O)NCC(=O)O)NC(=O)[C@H](Cc4ccc(O)cc4)NC(=O)CNC(=O)[C@H](CC(N)=O)NC(=O)CNC(=O)[C@H](CCCNC(=N)N)NC(=O)[C@H](CSSC[C@H](NC(=O)[C@H](CCCNC(=N)N)NC(=O)[C@H](Cc4ccccc4)NC(=O)[C@H](CC(C)C)NC(=O)[C@H](CC(C)C)NC(=O)[C@H]([C@@H](C)O)NC(=O)CNC(=O)[C@H](CC(C)C)NC(=O)[C@H](CC(=O)O)NC(=O)[C@H]([C@@H](C)O)NC(=O)[C@H](CCCNC(=N)N)NC(=O)CNC(=O)[C@H](CC(N)=O)NC(=O)[C@H](CC(C)C)NC1=O)C(=O)N[C@@H](CCCNC(=N)N)C(=O)N[C@@H](CCCNC(=N)N)C(=O)N[C@@H](CC(=O)O)C(=O)N[C@@H](CO)C(=O)N[C@@H](CC(=O)O)C(=O)N3)NC(=O)[C@H]([C@@H](C)CC)NC2=O` [^177Lu-DOTA-integrin αvβ6 knottin, metal not drawn] showed a tissue uptake at 24 h ([1]; heart, Heart uptake, 24 h p.i., ~1 MBq i.v., nude mice, Capan-2 xenografts, mean ± SD (4 ≤ n ≤ 5)) of 0.16 %ID/g, a tissue uptake at 48 h ([1]; heart, Heart uptake, 48 h p.i., ~1 MBq i.v., nude mice, Capan-2 xenografts, mean ± SD (4 ≤ n ≤ 5)) of 0.07 %ID/g and a tissue uptake at 72 h ([1]; heart, Heart uptake, 72 h p.i., ~1 MBq i.v., nude mice, Capan-2 xenografts, mean ± SD (4 ≤ n ≤ 5)) of 0.08 %ID/g. The tissue uptake at 192 h ([1]; heart, Heart uptake, 192 h p.i., ~1 MBq i.v., nude mice, Capan-2 xenografts, mean ± SD (4 ≤ n ≤ 5)) was 0.04 %ID/g, the tissue uptake at 24 h ([1]; kidney, Kidney uptake, 24 h p.i., ~1 MBq i.v., nude mice, Capan-2 xenografts, mean ± SD (4 ≤ n ≤ 5)) was 19.2 %ID/g and the tissue uptake at 48 h ([1]; kidney, Kidney uptake, 48 h p.i., ~1 MBq i.v., nude mice, Capan-2 xenografts, mean ± SD (4 ≤ n ≤ 5)) was 12.5 %ID/g. The tissue uptake at 72 h ([1]; kidney, Kidney uptake, 72 h p.i., ~1 MBq i.v., nude mice, Capan-2 xenografts, mean ± SD (4 ≤ n ≤ 5)) was 14.7 %ID/g, the tissue uptake at 192 h ([1]; kidney, Kidney uptake, 192 h p.i., ~1 MBq i.v., nude mice, Capan-2 xenografts, mean ± SD (4 ≤ n ≤ 5)) was 2.28 %ID/g and the tissue uptake at 24 h ([1]; kidney, Kidney uptake, day 1 p.i., ~1 MBq i.v., Capan-2 xenograft mice) was 19.2 ± 2.5 %ID/g. The tissue uptake at 72 h ([1]; kidney, Kidney uptake, day 3 p.i., ~1 MBq i.v., Capan-2 xenograft mice) was 14.7 ± 4.5 %ID/g, the tissue uptake at 192 h ([1]; kidney, Kidney uptake, day 8 p.i., ~1 MBq i.v., Capan-2 xenograft mice) was 2.3 ± 0.4 %ID/g and the tissue uptake at 24 h ([1]; lung, Lung uptake, 24 h p.i., ~1 MBq i.v., nude mice, Capan-2 xenografts, mean ± SD (4 ≤ n ≤ 5)) was 1.74 %ID/g. It also gave a tissue uptake at 48 h ([1]; lung, Lung uptake, 48 h p.i., ~1 MBq i.v., nude mice, Capan-2 xenografts, mean ± SD (4 ≤ n ≤ 5)) of 0.53 %ID/g, a tissue uptake at 72 h ([1]; lung, Lung uptake, 72 h p.i., ~1 MBq i.v., nude mice, Capan-2 xenografts, mean ± SD (4 ≤ n ≤ 5)) of 0.52 %ID/g and a tissue uptake at 192 h ([1]; lung, Lung uptake, 192 h p.i., ~1 MBq i.v., nude mice, Capan-2 xenografts, mean ± SD (4 ≤ n ≤ 5)) of 0.06 %ID/g. It also gave a tissue uptake at 24 h ([1]; muscle, Muscle uptake, 24 h p.i., ~1 MBq i.v., nude mice, Capan-2 xenografts, mean ± SD (4 ≤ n ≤ 5)) of 0.26 %ID/g, a tissue uptake at 48 h ([1]; muscle, Muscle uptake, 48 h p.i., ~1 MBq i.v., nude mice, Capan-2 xenografts, mean ± SD (4 ≤ n ≤ 5)) of 0.11 %ID/g and a tissue uptake at 72 h ([1]; muscle, Muscle uptake, 72 h p.i., ~1 MBq i.v., nude mice, Capan-2 xenografts, mean ± SD (4 ≤ n ≤ 5)) of 0.1 %ID/g. It also gave a tissue uptake at 192 h ([1]; muscle, Muscle uptake, 192 h p.i., ~1 MBq i.v., nude mice, Capan-2 xenografts, mean ± SD (4 ≤ n ≤ 5)) of 0.04 %ID/g, a tissue uptake at 24 h ([1]; pancreas, Pancreas uptake, 24 h p.i., ~1 MBq i.v., nude mice, Capan-2 xenografts, mean ± SD (4 ≤ n ≤ 5)) of 0.65 %ID/g and a tissue uptake at 48 h ([1]; pancreas, Pancreas uptake, 48 h p.i., ~1 MBq i.v., nude mice, Capan-2 xenografts, mean ± SD (4 ≤ n ≤ 5)) of 0.17 %ID/g. For the same compound, the tissue uptake at 72 h ([1]; pancreas, Pancreas uptake, 72 h p.i., ~1 MBq i.v., nude mice, Capan-2 xenografts, mean ± SD (4 ≤ n ≤ 5)) was 0.29 %ID/g, the tissue uptake at 192 h ([1]; pancreas, Pancreas uptake, 192 h p.i., ~1 MBq i.v., nude mice, Capan-2 xenografts, mean ± SD (4 ≤ n ≤ 5)) was 0.03 %ID/g and the tissue uptake at 192 h ([1]; spleen, Spleen uptake, 192 h p.i., ~1 MBq i.v., nude mice, Capan-2 xenografts, mean ± SD (4 ≤ n ≤ 5)) was 0.04 %ID/g. The tissue uptake at 24 h ([1]; stomach, Stomach uptake, 24 h p.i., ~1 MBq i.v., nude mice, Capan-2 xenografts, mean ± SD (4 ≤ n ≤ 5)) was 1.92 %ID/g, the tissue uptake at 48 h ([1]; stomach, Stomach uptake, 48 h p.i., ~1 MBq i.v., nude mice, Capan-2 xenografts, mean ± SD (4 ≤ n ≤ 5)) was 1.01 %ID/g and the tissue uptake at 72 h ([1]; stomach, Stomach uptake, 72 h p.i., ~1 MBq i.v., nude mice, Capan-2 xenografts, mean ± SD (4 ≤ n ≤ 5)) was 0.83 %ID/g. The tissue uptake at 192 h ([1]; stomach, Stomach uptake, 192 h p.i., ~1 MBq i.v., nude mice, Capan-2 xenografts, mean ± SD (4 ≤ n ≤ 5)) was 0.14 %ID/g, the tissue uptake at 24 h ([1]; tail, Tail activity, 24 h p.i., ~1 MBq i.v., nude mice, Capan-2 xenografts, mean ± SD (4 ≤ n ≤ 5)) was 0.31 %ID/g and the tissue uptake at 48 h ([1]; tail, Tail activity, 48 h p.i., ~1 MBq i.v., nude mice, Capan-2 xenografts, mean ± SD (4 ≤ n ≤ 5)) was 0.2 %ID/g. The tissue uptake at 24 h ([1]; tumor, Tumor uptake, 24 h p.i., ~1 MBq (22 pmol) i.v., nude mice, Capan-2 xenografts, mean ± SD (4 ≤ n ≤ 5)) was 3.13 %ID/g, the tissue uptake at 24 h ([1]; tumor, Tumor uptake, day 1 p.i., ~1 MBq i.v., Capan-2 xenografts, mean ± S.E.M.) was 3.1 ± 0.6 %ID/g and the tissue uptake at 48 h ([1]; tumor, Tumor uptake, day 2 p.i., ~1 MBq i.v., Capan-2 xenografts, mean ± S.E.M.) was 2.5 ± 0.4 %ID/g. For the same compound, the tissue uptake at 72 h ([1]; tumor, Tumor uptake, day 3 p.i., ~1 MBq i.v., Capan-2 xenografts, mean ± S.E.M.) was 3.5 ± 0.9 %ID/g, the tissue uptake at 192 h ([1]; tumor, Tumor uptake, day 8 p.i., ~1 MBq i.v., Capan-2 xenografts, mean ± S.E.M.) was 1.2 ± 0.2 %ID/g and the Tumor uptake ([2]; 24 h p.i., ~1 MBq (22 pmol) i.v., nude mice, Capan-2 xenografts, mean ± SD (4 ≤ n ≤ 5)) was 3.13 ± 0.63 %IA/g. For the same compound, the Kidney uptake ([2]; 24 h p.i., nude mice, Capan-2 xenografts, mean ± SD (4 ≤ n ≤ 5)) was 19.2 ± 2.5 %IA/g, the Blood activity ([2]; 48 h p.i., nude mice, Capan-2 xenografts, mean ± SD (4 ≤ n ≤ 5)) was 0.00 %IA/g and the Blood activity [2, 4] was 0.00 %IA/g. For the same compound, the Kidney uptake [2, 4] was 2.3 ± 0.40 %IA/g, the “Tumor uptake compared with ^64Cu conjugate” value ([2]; comparison with earlier study, cited there as [19]) was “tumor uptake was not found to be higher” and the “Kidney wash-out versus tumor (ex vivo)” value ([2]; days 1, 2, 3 and 8 p.i., listed as 177Lu tracer) was “in the tumor the activity was cleared at a much lower rate than in the kidney”. For the same compound, the “Activity in organs like stomach, colon and lung” value ([2]; later time points) was “low or moderate activity”, the “Tracer accumulation (SPECT MIP)” value ([3]; 22 h p.i., 62 MBq i.v.) was “accumulation of ^177Lu-DOTA-integrin αvβ6 knottin in both the tumors and the kidneys” and the “Uptake by other organs (SPECT)” value ([3]; 22 h p.i., 62 MBq i.v.) was “low or moderate”. The “Initial kidney accumulation (SPECT)” value ([3]; kidney versus tumor, up to 3 h p.i.) was “higher initial accumulation”.
